According to patent publication US20250361296A1 (BIOCYTOGEN PHARMACEUTICALS BEIJING, published 2025):

T1: hSIGLEC15 protein captured in the epitope analysis of Example 4 (human, UniProt Q6ZMC9 20-263, limits assumed)
T1 sequence: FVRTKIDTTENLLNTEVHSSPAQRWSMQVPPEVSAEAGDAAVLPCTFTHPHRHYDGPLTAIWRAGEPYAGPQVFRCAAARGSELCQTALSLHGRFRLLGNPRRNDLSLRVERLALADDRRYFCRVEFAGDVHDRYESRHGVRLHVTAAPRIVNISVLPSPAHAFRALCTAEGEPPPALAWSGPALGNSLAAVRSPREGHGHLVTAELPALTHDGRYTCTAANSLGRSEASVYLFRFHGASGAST

T2: human SIGLEC15 on CHO-S-hSIGLEC15 cells (human, UniProt Q6ZMC9 20-328)
T2 sequence: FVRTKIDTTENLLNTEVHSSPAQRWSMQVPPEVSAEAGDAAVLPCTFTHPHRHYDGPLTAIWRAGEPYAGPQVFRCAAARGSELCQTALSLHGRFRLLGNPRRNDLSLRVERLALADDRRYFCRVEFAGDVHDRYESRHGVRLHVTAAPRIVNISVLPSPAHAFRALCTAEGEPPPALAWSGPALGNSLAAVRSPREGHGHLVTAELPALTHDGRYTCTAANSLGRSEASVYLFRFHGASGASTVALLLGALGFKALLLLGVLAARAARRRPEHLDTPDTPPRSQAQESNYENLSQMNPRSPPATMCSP

T3: mouse SIGLEC15 on CHO-S-mSIGLEC15 cells (mouse)
T3 chain: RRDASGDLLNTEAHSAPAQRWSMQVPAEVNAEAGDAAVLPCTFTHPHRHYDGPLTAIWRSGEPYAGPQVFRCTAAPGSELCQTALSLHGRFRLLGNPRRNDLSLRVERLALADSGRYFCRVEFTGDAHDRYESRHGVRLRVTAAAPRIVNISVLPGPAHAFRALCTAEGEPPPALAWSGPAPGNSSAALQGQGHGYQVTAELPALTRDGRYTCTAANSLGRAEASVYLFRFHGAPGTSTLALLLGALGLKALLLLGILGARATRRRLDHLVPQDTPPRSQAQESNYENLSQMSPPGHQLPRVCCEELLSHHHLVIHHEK

T4: dog SIGLEC15 on CHO-S-dSIGLEC15 cells (dog)
T4 chain: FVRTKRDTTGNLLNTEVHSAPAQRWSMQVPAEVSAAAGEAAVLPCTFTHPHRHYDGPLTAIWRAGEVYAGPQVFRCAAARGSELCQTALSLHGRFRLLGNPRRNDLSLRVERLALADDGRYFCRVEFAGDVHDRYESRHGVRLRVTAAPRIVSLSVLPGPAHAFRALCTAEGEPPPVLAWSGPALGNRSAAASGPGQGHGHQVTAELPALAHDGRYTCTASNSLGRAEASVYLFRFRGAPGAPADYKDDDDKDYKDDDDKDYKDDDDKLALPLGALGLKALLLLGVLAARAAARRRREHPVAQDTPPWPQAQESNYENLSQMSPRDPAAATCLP


Key:
[1] = target: T1, hSIGLEC15 protein captured in the …; test: BLI pairwise binning on captured hSIGLEC15, 200 nM each antibody; competitor 10C9
Method: (§1) Relative positions of target protein epitope between a pair of purified anti-SIGLEC15 antibodies were analyzed by Biolayer Interferometry (BLI) using ForteBio Octet system at 30° C. A total of 4 purified antibodies were used: 5G12, 10A7, 10C9 and 23F4.
(§2) 1×HBS-EP+ buffer (10 mM 4-(2-hydroxyethyl)-1-piperazineethanesulfonic acid (HEPES), 150 mM NaCl, 3 mM ethylenediaminetetraacetic acid (EDTA) and 0.05% P20, pH7.4) diluted from HBS-EP+ buffer (10×) was used as the running buffer throughout the experiment. About 100 RU of hSIGLEC15 protein was captured at a flow rate of 10 μL/min, and 200 nM of antibody was injected at a flow rate of 30 μL/min to bind the ligand. Another antibody was injected under the same conditions to determine whether the binding of different antibodies interfered with each other. The binding time was 300 s for each antibody.
(§3) The binding value of each antibody was obtained using Data Analysis HT 12.0. To quantify the interference of one antibody binding to another, a binding ratio was calculated to compare each pair of antibodies. The binding ratio is defined as the binding value of the second antibody (analyte 2), divided by the binding value of the first antibody (analyte 1). […] In general, antibody pairs that interfere with each other have the same or overlapping epitopes.

[2] = target: T2, human SIGLEC15 on CHO-S-hSIGLEC15 cells; test: flow cytometry, CHO-S cells expressing the target
Method: (§4) CHO-S-hSIGLEC15 cells, CHO-S-mSIGLEC15 cells, CHO-S-fasSIGLEC15 cells or CHO-S-dSIGLEC15 cells were transferred to a 96-well plate at a density of 5×10⁴ cells/well respectively. Serially diluted sample anti-SIGLEC15 antibodies were added to the 96-well plate, and incubated at 4° C. for 30 min. Then, the cells were incubated with the secondary antibody anti-hIgG-Fc-Alex Flour 647 (RL1-H) (Jackson ImmunoResearch Laboratories, Inc., 109-606-170) at 4° C. in the dark for 15 minutes before flow cytometry analysis.

[3] = target: T3, mouse SIGLEC15 on CHO-S-mSIGLEC15 cells; test: flow cytometry, CHO-S cells expressing the target
Method: as §4

[4] = target: T4, dog SIGLEC15 on CHO-S-dSIGLEC15 cells; test: flow cytometry, CHO-S cells expressing the target
Method: as §4

[5] = target: T1, hSIGLEC15 protein captured in the …; test: BLI pairwise binning on captured hSIGLEC15, 200 nM each antibody; competitor 10A7
Method: as §1, §2, §3

[6] = target: T1, hSIGLEC15 protein captured in the …; test: BLI pairwise binning on captured hSIGLEC15, 200 nM each antibody; competitor 23F4
Method: as §1, §2, §3

[7] = target: T1, hSIGLEC15 protein captured in the …; test: BLI pairwise binning on captured hSIGLEC15, 200 nM each antibody; competitor 5G12
Method: as §1, §2, §3

binding ratio [1] | Percentage of Positive Cells [2] [%] | Percentage of Positive Cells [3] [%] | Percentage of Positive Cells [4] [%] | binding ratio [5] | binding ratio [6] | binding ratio [7] | Binder
0.62 | 25.6 | 40.5 | 24.6 | 0.18 | 0.07 | 0.48 | anti-SIGLEC15 antibody 23F4 (antibody, human IgG1, V domains shown) VH: QVQLQQWGAGLLKPSETLSLTCAVYGGSFSGYFWSWIRQPPGKGLEWIGEINHSGSTNYNPSLKSRVTLSVDTSKNQFSLKLSSVTAADTAVYYCAREGDSSSWGNWFDPWGQGTLVTVSS VL: EIVLTQSPGTLSLSPGERATLSCRASQSVSSSYLAWYQQKPGQAPRFLIYGASSRATGIPDRFSGSGSGTDFTLTISRLEPEDFAVYYCQQFGNSPLTFGGGTKVEIK
0.16 | 17.9 | 38.5 | 22.8 | 0.14 | 0.43 | 0.2 | anti-SIGLEC15 antibody 10A7 (antibody, human IgG1, V domains shown) VH: EVQLVQSGGGLVQPGGSLRLSCAASGFTFSNYEMNWVRQAPGKGLEWISYISNSGSTIYYADSVKGRFTISRDDAKNSLYLQMNSLRAEDTAVYYCAREDYDSSGYYWFDPWGQGTPVTVSS VL: DIQLTQSPSSVSASVGDRVTITCRASQGISSWLAWYQQKPGKAPKLLIYAASSLQSGVPSRFSGSGSGTDFTLTINSLQPEDFATYYCQQTNSFPLTFGGGTKVEIK
0.11 | 16.3 | 29.3 | 37.3 | 0.11 | 0.72 | 0.23 | anti-SIGLEC15 antibody 10C9 (antibody, human IgG1, V domains shown) VH: QVQLVQSGAEVKKPGATVKVSCKASGYTFTNYGFSWVRQAPGQGLEWMGWINTYNDNTNYAQKFQGRVTMTTDTSTSTAYMELRSLRSDDTAVYYCARDGLWFGELPHYFDYWGQGTLVTVSS VL: DIQLTQSPLSSPVTLGQPASISCRSSQSLVNSDGETFLSWLQQRPGQPPRLLIYKISNRFSGVPDRFSGSGAGTDFTLKISRVEAEDVGVYYCMQATQFPHTFGQGTKLEIK
